Five substances from publication PMC9917868 can be followed below.

Test [1] concerns the target VAP, endogenous in cultured rat hippocampal neurons (UniProt Q9Z270). Nature of the test: co-immunoprecipitation (IP: NRG2 (V5)), Western blot densitometry. The following applies: AAV-transduced neurons; n = four independent experiments; parent: 1.00; read off a plot. On the technique in general: In western blotting, separated proteins are transferred to a membrane and probed.

Test [2] shares this target. Nature of the test: GST pulldown with peptide competition, Western blot densitometry (VAP left on GST-NRG2_CD bait; lower signal = stronger competition by the peptide). The settings on record: lysate of untransduced neurons, n = three independent experiments, parent: est. 0.14, read off a plot, scale: normalized VAP signal.
Test [3] concerns the target crNRG2 (cleavage-resistant variant of proNRG2) (human) (UniProt O14511). Kind of test: co-IP; co-IP of VAP with crNRG2 from transduced rat hippocampal neurons; neurons untreated (Ctrl), treated 10 min with NMDA (50 µM), or with NMDA and D-AP5 (50 µM); VAP signals normalized to Ctrl = 1.

As to “V5 epitope-tagged proNRG2 (wild type), expressed in cultured rat hippocampal neurons (from UniProt O14511) S613A; T625A; T626A”, the ratio to parent in test [1] amounted to 0.73.

“V5 epitope-tagged proNRG2 (wild type), expressed in cultured rat hippocampal neurons (from UniProt O14511) S494A; S497A; S502A; T506A; S511A”: the ratio to parent in test [1] is 0.

Consider “D-WT peptide (wild-type D-box peptide of NRG2) D620K; E622K”, for which, in test [2], the response was 0.63.

Take “V5 epitope-tagged proNRG2 (wild type), expressed in cultured rat hippocampal neurons (from UniProt O14511) S494A; S497A; S502A; T506A; S511A; S613A; T625A; T626A”: the ratio to parent in test [1] worked out at 0.

Take “VAP, endogenous in cultured rat hippocampal neurons (from UniProt Q9Z270 1-249) (natural protein)”: in test [3], the normalized VAP co-IP signal after 10 min NMDA 50 µM (Ctrl = 1) (relative to Ctrl = 1) was found to be 0.31 and the normalized VAP co-IP signal after NMDA with D-AP5 50 µM (Ctrl = 1) (relative to Ctrl = 1) is 1.1.
